Data as given in US7169891B2, “Human pellino polypeptides” (Immunex Corporation, priority 2000, dated 2007).
Substitutions are numbered along the chain they refer to. Names may count otherwise. “Also recorded” adds a separate entry of the source. Non-standard residues stand in square brackets, D forms with d. Residues, ends and D or L forms follow the SMILES beside them. *: point of attachment. Nle = CCCC[C@H](N)C(=O)O; Cbz = O=C(OCc1ccccc1)*; CH2F = FC*

B1: dN50-FLAG: murine Pellino-1-FLAG, N-terminal 50 amino acids deleted (protein, UniProt Q8C669 51-418, looked up, fragment)
chain: GVKPSTVHIACTPQAAKAISNKDQHSISYTLSRAQTVVVEYTHDSNTDMFQIGRSTESPIDFVVTDTVPGSQSNSDTQSVQSTISRFACRIICERSPPFTARIYAAGFDSSKNIFLGEKAAKWKTSDGQMDGLTTNGVLVMHPRNGFTEDSKPGIWREISVCGNVFSLRETRSAQQRGKMVEIETNQLQDGSLIDLCGATLLWRTAEGLSHTPTVKHLEALRQEINAARPQCPVGFNTLAFPSMKRKDVVDEKQPWVYLNCGHVHGYHNWGNKEERDGKDRECPMCRSVGPYVPLWLGCEAGFYVDAGPPTHAFSPCGHVCSEKTTAYWSQIPLPHGTHTFHAACPFCAHQLAGEQGYIRLIFQGPLD
modifications: FLAG tag
notes: murine Pellino-1-FLAG, N-terminal 50 amino acids deleted
B2: 1–350: murine Pellino-1, only amino acids 1–350 present (protein, UniProt Q8C669 1-350, looked up, fragment)
chain: MFSPDQENHPSKAPVKYGELIVLGYNGSLPNGDRGRRKSRFALFKRPKANGVKPSTVHIACTPQAAKAISNKDQHSISYTLSRAQTVVVEYTHDSNTDMFQIGRSTESPIDFVVTDTVPGSQSNSDTQSVQSTISRFACRIICERSPPFTARIYAAGFDSSKNIFLGEKAAKWKTSDGQMDGLTTNGVLVMHPRNGFTEDSKPGIWREISVCGNVFSLRETRSAQQRGKMVEIETNQLQDGSLIDLCGATLLWRTAEGLSHTPTVKHLEALRQEINAARPQCPVGFNTLAFPSMKRKDVVDEKQPWVYLNCGHVHGYHNWGNKEERDGKDRECPMCRSVGPYVPLWLGCE
B3: dN180-FLAG: murine Pellino-1-FLAG, N-terminal 180 amino acids deleted (protein, UniProt Q8C669 181-418, looked up, fragment)
chain: DGLTTNGVLVMHPRNGFTEDSKPGIWREISVCGNVFSLRETRSAQQRGKMVEIETNQLQDGSLIDLCGATLLWRTAEGLSHTPTVKHLEALRQEINAARPQCPVGFNTLAFPSMKRKDVVDEKQPWVYLNCGHVHGYHNWGNKEERDGKDRECPMCRSVGPYVPLWLGCEAGFYVDAGPPTHAFSPCGHVCSEKTTAYWSQIPLPHGTHTFHAACPFCAHQLAGEQGYIRLIFQGPLD
modifications: FLAG tag
notes: murine Pellino-1-FLAG, N-terminal 180 amino acids deleted
B4: dN230-FLAG: murine Pellino-1-FLAG, N-terminal 230 amino acids deleted (protein, UniProt Q8C669 231-418, looked up, fragment)
chain: VEIETNQLQDGSLIDLCGATLLWRTAEGLSHTPTVKHLEALRQEINAARPQCPVGFNTLAFPSMKRKDVVDEKQPWVYLNCGHVHGYHNWGNKEERDGKDRECPMCRSVGPYVPLWLGCEAGFYVDAGPPTHAFSPCGHVCSEKTTAYWSQIPLPHGTHTFHAACPFCAHQLAGEQGYIRLIFQGPLD
modifications: FLAG tag
notes: murine Pellino-1-FLAG, N-terminal 230 amino acids deleted
B5: Y154A-FLAG: murine Pellino-1-FLAG, Tyr to Ala substitution at residue 154 (protein, UniProt Q8C669 1-418, looked up, variant Y154A)
E3 ubiquitin-protein ligase …: MFSPDQENHPSKAPVKYGELIVLGYNGSLPNGDRGRRKSRFALFKRPKANGVKPSTVHIACTPQAAKAISNKDQHSISYTLSRAQTVVVEYTHDSNTDMFQIGRSTESPIDFVVTDTVPGSQSNSDTQSVQSTISRFACRIICERSPPFTARIAAAGFDSSKNIFLGEKAAKWKTSDGQMDGLTTNGVLVMHPRNGFTEDSKPGIWREISVCGNVFSLRETRSAQQRGKMVEIETNQLQDGSLIDLCGATLLWRTAEGLSHTPTVKHLEALRQEINAARPQCPVGFNTLAFPSMKRKDVVDEKQPWVYLNCGHVHGYHNWGNKEERDGKDRECPMCRSVGPYVPLWLGCEAGFYVDAGPPTHAFSPCGHVCSEKTTAYWSQIPLPHGTHTFHAACPFCAHQLAGEQGYIRLIFQGPLD
modifications: FLAG tag
B6: F165L-FLAG: murine Pellino-1-FLAG, Phe to Leu substitution at residue 165 (protein, UniProt Q8C669 1-418, looked up, variant F165L)
E3 ubiquitin-protein ligase …: B5 E3 ubiquitin-protein ligase … with A154Y, F165L
modifications: FLAG tag
B7: F158A-FLAG: murine Pellino-1-FLAG, Phe to Ala substitution at residue 158 (protein, UniProt Q8C669 1-418, looked up, variant F158A)
E3 ubiquitin-protein ligase …: B5 E3 ubiquitin-protein ligase … with A154Y, F158A
modifications: FLAG tag
B8: wild-type Pellino-2: wild-type Pellino-2 polypeptide expressed in COS cells; species not stated at the result (protein, UniProt Q9HAT8 1-420, looked up)
E3 ubiquitin-protein ligase …: MFSPGQEEHCAPNKEPVKYGELVVLGYNGALPNGDRGRRKSRFALYKRPKANGVKPSTVHVISTPQASKAISCKGQHSISYTLSRNQTVVVEYTHDKDTDMFQVGRSTESPIDFVVTDTISGSQNTDEAQITQSTISRFACRIVCDRNEPYTARIFAAGFDSSKNIFLGEKAAKWKNPDGHMDGLTTNGVLVMHPRGGFTEESQPGVWREISVCGDVYTLRETRSAQQRGKLVESETNVLQDGSLIDLCGATLLWRTADGLFHTPTQKHIEALRQEINAARPQCPVGLNTLAFPSINRKEVVEEKQPWAYLSCGHVHGYHNWGHRSDTEANERECPMCRTVGPYVPLWLGCEAGFYVDAGPPTHAFTPCGHVCSEKSAKYWSQIPLPHGTHAFHAACPFCATQLVGEQNCIKLIFQGPID
B9: 1–250: murine Pellino-1, only amino acids 1–250 present (protein, UniProt Q8C669 1-250, looked up, fragment)
chain: MFSPDQENHPSKAPVKYGELIVLGYNGSLPNGDRGRRKSRFALFKRPKANGVKPSTVHIACTPQAAKAISNKDQHSISYTLSRAQTVVVEYTHDSNTDMFQIGRSTESPIDFVVTDTVPGSQSNSDTQSVQSTISRFACRIICERSPPFTARIYAAGFDSSKNIFLGEKAAKWKTSDGQMDGLTTNGVLVMHPRNGFTEDSKPGIWREISVCGNVFSLRETRSAQQRGKMVEIETNQLQDGSLIDLCGAT
B10: dN99-FLAG: murine Pellino-1-FLAG, N-terminal 99 amino acids deleted (protein, UniProt Q8C669 100-418, looked up, fragment)
chain: FQIGRSTESPIDFVVTDTVPGSQSNSDTQSVQSTISRFACRIICERSPPFTARIYAAGFDSSKNIFLGEKAAKWKTSDGQMDGLTTNGVLVMHPRNGFTEDSKPGIWREISVCGNVFSLRETRSAQQRGKMVEIETNQLQDGSLIDLCGATLLWRTAEGLSHTPTVKHLEALRQEINAARPQCPVGFNTLAFPSMKRKDVVDEKQPWVYLNCGHVHGYHNWGNKEERDGKDRECPMCRSVGPYVPLWLGCEAGFYVDAGPPTHAFSPCGHVCSEKTTAYWSQIPLPHGTHTFHAACPFCAHQLAGEQGYIRLIFQGPLD
modifications: FLAG tag
notes: murine Pellino-1-FLAG, N-terminal 99 amino acids deleted

Legend:
[1] = test system: Pellino-1 Cleavage and Relocation; assay: Effect of protease and other inhibitors on PMA-induced Pellino-1 cleavage and relocation in COS7 cells; type: cell-based, monkey; conditions: for Effect on Pellino-1 Cleavage and Relocation: COS7 cells treated with PMA
Experimental: In an effort to determine which protease might be involved in the regulation of Pellino-1 cleavage, COS7 cells transfected with a Pellino-1-expressing construct were treated with PMA together with inhibitors of different classes of proteinases as shown in Table 3 below.

[2] = test system: NF-kB-dependent reporter gene; assay: NF-kB-dependent reporter gene (luciferase) assay in transfected COS cells; type: cell-based, monkey; conditions: for Effect on Reporter Gene: NF-kB-dependent reporter gene activity, form of murine Pellino-1 expressed in COS cells
From the text: The murine Pellino-1 coding sequence DNA was fused, in frame at the 3′ end, to DNA encoding the FLAG epitope, followed by an in-frame stop codon. This construct was cloned into the mammalian expression vector pDC304 (identical to pDC302, described in U.S. Pat. No. 5,599,905, issued Feb. 4, 1997, except that the early splice region, consisting of splice donor and acceptor sites of the SV40 viral element, has been removed); and transfected into an IL-1-responsive line of COS-7 cells by the DEAE-dextran method.
In order to assay the effect of the Pellino-1-FLAG polypeptide and other forms of Pellino polypeptides on reporter gene activity, a method essentially as described in Born et al., 1998, J. Biol. Cheni. 273: 29445–29450 (which is incorporated by reference herein) can be used. As one example of this method, Cos7 cells were transiently transfected by the DEAE-dextran method as described (Cosman et al., 1984, Nature 312: 768–771, which is incorporated by reference herein), using 150 ng of the Pellino polypeptide expression construct and 700 ng of the reporter plasmid per 45,000 cells. Two days post-transfection, cells were stimulated with 10 ng/ml IL-1 or 40 ng/ml IL-18 (PeproTech, Inc.) for 4 hours. Cells were lysed and luciferase activity assessed using Reporter Lysis Buffer and Luciferase Assay Reagent (Promega Corp.). IL-8 promoter-reporter and NFkB-dependent reporter constructs may be used as reporter plasmids. Alternatively, the effect of Pellino polypeptide expression may be assayed in COS-1 cells. In an alternative preferred method, COS7 cells were grown in 12-well dishes as described above. The cells were transiently transfected with Pellino test plasmid, 50 ng of reporter plasmid DNA, and empty vector, as required, to a total of 1 micrograms of total DNA per well. After 24 hours, stimulating agents were added in a small amount (less than 0.5% final volume) of medium or dimethyl sulfoxide, and the cells were re-incubated for 5 hours. Cells were lysed in luciferase Reporter Lysis Buffer (Promega, Madison Wis., 0.25 ml per well) and luciferase activity was measured in a EG & G/Berthold luminometer after addition of Luciferase Assay Reagent (Promega) according to the supplier's instructions. All results were normalized to total protein content of the lysates as measured using the micro-BCA assay (Pierce, Rockford, Ill).

| Molecule | Effect on Reporter Gene [2] | further results |
| --- | --- | --- |
| CCCC[C@@H](C=O)NC(=O)[C@H](CC(C)C)NC(=O)[C@H](CC(C)C)NC(C)=O [ALLN] (Ac-Leu-Leu-[Nle]-aldehyde) |  | Effect on Pellino-1 Cleavage and Relocation ([1]; inhibitor 20 microM): none |
| C[C@@H]1C[C@@H]([C@H](O)CC2CC(=O)NC(=O)C2)C(=O)[C@@H](C)C1 [Cycloheximide] |  | Effect on Pellino-1 Cleavage and Relocation ([1]; inhibitor 40 microM): inhibition; PMA-induced Pellino-1 cleavage (and relocation) ([1]; treatment of FLAG-Pellino-1-transfected COS7 cells with the inhibitor): largely prevented; also recorded: completely prevented |
| CC(=O)N[C@@H](CSC(=O)[C@]1([C@@H](O)C(C)C)NC(=O)[C@H](C)[C@@H]1O)C(=O)O [Lactacystin] |  | Effect on Pellino-1 Cleavage and Relocation ([1]; inhibitor 20 microM): none |
| CC(C)C[C@@H](C=O)NC(=O)[C@H](CC(C)C)NC(=O)[C@H](CC(C)C)NC(=O)OCc1ccccc1 [MG132] (Cbz-Leu-Leu-Leu-aldehyde) |  | Effect on Pellino-1 Cleavage and Relocation ([1]; inhibitor 10 microM): none |
| Cc1ccc(S(=O)(=O)N[C@@H](Cc2ccccc2)C(=O)CCl)cc1 [TPCK] |  | Effect on Pellino-1 Cleavage and Relocation ([1]; inhibitor 20 microM): inhibition |
| COC(=O)CC[C@H](NC(=O)[C@H](CC(=O)OC)NC(=O)OCc1ccccc1)C(=O)N[C@H](C(=O)N[C@@H](CC(=O)OC)C(=O)CF)C(C)C [Z-DEVD-FMK] |  | Effect on Pellino-1 Cleavage and Relocation ([1]; inhibitor 20 microM): none |
| COC(=O)C[C@H](NC(=O)[C@H](C)NC(=O)[C@@H](NC(=O)OCc1ccccc1)C(C)C)C(=O)CF [Z-VAD-FMK] (Cbz-Val-Ala-Asp(OMe)-CH2F) |  | Effect on Pellino-1 Cleavage and Relocation ([1]; inhibitor 20 microM): none |
| B1 | Inhibitory |  |
| B2 | inactive |  |
| B3 | inactive |  |
| B4 | inactive |  |
| B5 | Stimulatory |  |
| B6 | Stimulatory |  |
| B7 | Slightly |  |
| B8 |  | NFkB-dependent reporter gene activity ([2]; COS cells transfected with high concentrations of expressing construct): inhibitory effect |
| B9 | inactive |  |
| B10 | Inhibitory |  |
